Source: patent US20240270866A1 (Alector, published 2024)
Changes are numbered by the printed parent chain.

B1: SA-60 (antibody, V domains shown)
VH: EVQLVESGGGLVQPGGSLRLSCAASGFTFSSYSMNWVRQAPGKGLEWVSYISSSSSTIYYADSVKGRFTISRDNAKNSLYLQMNSLRAEDTAVYYCARTHKHFDYGMDVWGQGTTVTVSS
VL: EIVLTQSPATLSLSPGERATLSCRASQSVSSYLAWYQQKPGQAPRLLIYDSSNRATGIPARFSGSGSGTDFTLTISSLEPEDFAVYYCQDRSNLPWTFGGGTKVEIK
notes: IgG
B2: SA-62 (antibody, V domains shown)
VH: B1 VH
VL: DIQMTQSPSSLSASVGDRVTITCQASQDIANYLNWYQQKPGKAPKLLIYDASNLETGVPSRFSGSGSGTDFTFTISSLQPEDIATYYCQQYVNYWTFGGGTKVEIK
notes: IgG
B3: SA-1 (antibody, V domains shown)
VH: EVQLVESGGGLVQPGRSLRLSCAASGFTFGDYAMHWVRQAPGKGLEWVSGISWNSGSIGYADSVKGRFTISRDNAKNSLYLQMNSLRAEDTALYYCAKDAPYVGLDLWGRGTLVTVSS
VL: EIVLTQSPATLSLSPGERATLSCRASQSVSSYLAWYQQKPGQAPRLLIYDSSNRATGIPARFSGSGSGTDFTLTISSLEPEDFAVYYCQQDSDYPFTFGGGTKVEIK
notes: IgG
B4: SA-2 (antibody, V domains shown)
VH: QVQLVESGGGVVQPGRSLRLSCAASGFTFSSYGMHWVRQAPGKGLEWVAVISYDGSNKYYADSVKGRFTISRDNSKNTLYLQMNSLRAEDTAVYYCAKDLGGGSGGYATSDYYYGMDVWGQGTTVTVSS
VL: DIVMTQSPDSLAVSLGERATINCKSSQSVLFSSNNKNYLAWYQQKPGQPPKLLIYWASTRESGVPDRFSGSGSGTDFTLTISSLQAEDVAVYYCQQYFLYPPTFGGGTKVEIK
notes: IgG
B5: SA-3 (antibody, V domains shown)
VH: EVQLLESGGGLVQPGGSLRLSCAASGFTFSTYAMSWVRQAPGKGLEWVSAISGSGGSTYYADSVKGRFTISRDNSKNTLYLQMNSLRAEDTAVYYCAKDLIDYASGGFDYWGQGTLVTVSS
VL: B1 VL with S51A, D90Q, R91H, S92D, N93F, L94W, W96P
notes: IgG
B6: SA-4 (antibody, V domains shown)
VH: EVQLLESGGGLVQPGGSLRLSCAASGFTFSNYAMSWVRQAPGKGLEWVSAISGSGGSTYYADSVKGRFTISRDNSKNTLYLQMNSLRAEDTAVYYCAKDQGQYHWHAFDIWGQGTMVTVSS
VL: B1 VL with S51A, D90Q, R91D, L94F, W96F
notes: IgG
B7: SA-19-73 Fab (Fab, V domains shown)
VH: QVQLVESGGGLVQPGGSLRLSCAASGFTFSSYAMHWVRQAPGKGLEWVAGILYDGSNKYYADSVKGRFTISRDNSKNTLYLQMNSLRAEDTAVYYCANSDTKYTLGFAFDIWGQGTMVTVSS
VL: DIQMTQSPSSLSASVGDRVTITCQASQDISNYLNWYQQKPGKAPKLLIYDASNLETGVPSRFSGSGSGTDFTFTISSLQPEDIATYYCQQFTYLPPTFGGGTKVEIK
notes: papain Fab
B8: SA-19-77 Fab (Fab, V domains shown)
VH: B7 VH with L11V, G16R, A33G, H35A, G50Q, K58E, N98R, S99D, D100L
VL: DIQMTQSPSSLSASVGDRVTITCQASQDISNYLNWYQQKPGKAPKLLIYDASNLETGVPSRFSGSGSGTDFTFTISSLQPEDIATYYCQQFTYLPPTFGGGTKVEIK
notes: papain Fab
B9: SA-19-78 Fab (Fab, V domains shown)
VH: B7 VH with L11V, G16R, A33G, G50V, L52A, Y59L, N84D, N98T
VL: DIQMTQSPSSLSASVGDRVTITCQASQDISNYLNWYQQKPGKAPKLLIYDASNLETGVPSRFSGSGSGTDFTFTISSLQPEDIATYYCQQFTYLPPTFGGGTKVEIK
notes: papain Fab
B10: SA-19-79 Fab (Fab, V domains shown)
VH: B7 VH with L11V, G16R, A33G, G50V, L52A, Y59I, N98T, S99T
VL: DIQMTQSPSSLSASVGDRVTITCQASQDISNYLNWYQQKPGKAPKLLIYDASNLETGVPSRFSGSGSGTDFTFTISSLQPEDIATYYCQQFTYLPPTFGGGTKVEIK
notes: papain Fab
B11: SA-19-80 Fab (Fab, V domains shown)
VH: EVQLLESGGGVVQPGRSLRLSCAASGFTFSSYGMHWVRQAPGKGLEWVAGILYDGSNKYYADSVKGRFTISRDNSKNTLYLQMDGLRAEDTAVYYCARHSVKYTLGFAFDIWGQGTMVTVSS
VL: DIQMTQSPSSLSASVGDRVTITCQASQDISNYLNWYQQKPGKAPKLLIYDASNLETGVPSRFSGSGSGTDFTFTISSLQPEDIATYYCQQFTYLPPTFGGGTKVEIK
notes: papain Fab
B12: SA-19-82 Fab (Fab, V domains shown)
VH: B7 VH with L11V, G16R, N98R, S99H, D100V, T101L
VL: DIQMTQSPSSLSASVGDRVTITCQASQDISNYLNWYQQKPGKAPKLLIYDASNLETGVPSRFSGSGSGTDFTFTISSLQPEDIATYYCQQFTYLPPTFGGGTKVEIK
notes: papain Fab
B13: SA-19-75 Fab (Fab, V domains shown)
VH: B7 VH with L11V, G16R, A33G, G50V, L52A, Y59L, N98L, S99M, D100R
VL: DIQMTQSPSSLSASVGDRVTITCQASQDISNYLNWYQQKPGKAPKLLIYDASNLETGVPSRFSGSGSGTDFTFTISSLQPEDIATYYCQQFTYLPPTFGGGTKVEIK
notes: papain Fab
B14: SA-19-72 Fab (Fab, V domains shown)
VH: B7 VH with L11V, G16R, R19G, N98R, D100N, T101E
VL: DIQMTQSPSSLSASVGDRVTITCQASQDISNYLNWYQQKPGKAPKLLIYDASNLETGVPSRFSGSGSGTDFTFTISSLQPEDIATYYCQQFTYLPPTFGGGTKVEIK
notes: papain Fab
B15: SA-19-74 Fab (Fab, V domains shown)
VH: B11 VH with E1Q, L5V, T28A, G33A, D84N, G85S, V101Q
VL: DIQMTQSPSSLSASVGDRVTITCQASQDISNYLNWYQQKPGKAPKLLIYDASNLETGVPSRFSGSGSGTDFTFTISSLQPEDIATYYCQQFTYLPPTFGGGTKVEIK
notes: papain Fab
B16: SA-19-76 Fab (Fab, V domains shown)
VH: QVQLVESGGGVVQPGRSLRLSCAASGFTFSSYGMHWVRQAPGKGLEWVAVIAYDGSNKLYADSVKGRFTISRDNAKNSLYLQMNSPRAEDTAVYYCATMRTKYTLGFAFDIWGQGTMVTVSS
VL: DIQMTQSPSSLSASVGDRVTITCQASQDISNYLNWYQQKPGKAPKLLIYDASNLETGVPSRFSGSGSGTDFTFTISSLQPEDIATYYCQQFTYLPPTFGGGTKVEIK
notes: papain Fab
B17: SA-19-81 Fab (Fab, V domains shown)
VH: B16 VH with F29S, A75S, S78T, P86L, T98R, M99T, R100P
VL: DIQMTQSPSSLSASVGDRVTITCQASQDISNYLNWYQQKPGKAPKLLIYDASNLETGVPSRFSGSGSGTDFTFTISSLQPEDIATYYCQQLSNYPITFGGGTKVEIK
notes: papain Fab
B18: SA-19-83 Fab (Fab, V domains shown)
VH: B7 VH with L11V, G16R, S30D, A33L, G50S, L52I, N98S, S99V, D100R
VL: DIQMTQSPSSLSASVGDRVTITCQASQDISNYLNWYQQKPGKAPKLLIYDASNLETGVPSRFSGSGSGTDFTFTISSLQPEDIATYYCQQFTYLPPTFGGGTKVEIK
notes: papain Fab
B19: SA-19-84 Fab (Fab, V domains shown)
VH: B16 VH with A75S, S78T, P86L, T98R, M99T, R100Q, T101L
VL: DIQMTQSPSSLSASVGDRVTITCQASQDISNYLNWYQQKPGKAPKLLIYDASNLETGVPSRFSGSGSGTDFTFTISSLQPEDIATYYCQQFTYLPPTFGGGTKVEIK
notes: papain Fab
B20: SA-56-86 Fab (Fab, V domains shown)
VH: QVQLVESGGGVVQPGGSLRLSCAASGFTFSYYGMSWVRQAPGKGLEWVASIWVDGSSKYYADSVKGRFTISRDNSKNTLYLQMNSLRAEDTAVYYCARGVETYSGPNWFDPWGQGTLVTVSS
VL: DIQMTQSPSSVSASVGDRVTITCRASQGISSWLAWYQQKPGKAPKLLIYAASSLQSGVPSRFSGSGSGTDFTLTISSLQPEDFATYYCQQAIYFPITFGGGTKVEIK
notes: papain Fab
B21: SA-5-57 Fab (Fab, V domains shown)
VH: EVQLLESGGGLVQPGGSLRLSCAASGFTFDSYAMSWVRQAPGKGLEWVSATSGGGGSTYHADPVKGRFTISRDNSKNTLYLQMNSLRAEDTAVYYCAKDITDDFWSVTPPYFDLWGRGTLVTVSS
VL: B20 VL with M4L, G28D, A91G, I92Y, Y93I, I96R
notes: papain Fab
B22: SA-5-58 Fab (Fab, V domains shown)
VH: B21 VH with T51I, G54S, P63S, I100T, T101G, D102I, D103S, F104L
VL: B20 VL with M4L, G28D, A91G, I92Y, Y93I, I96R
notes: papain Fab
B23: SA-5-59 Fab (Fab, V domains shown)
VH: EVQLLESGGGLVQPGGSLRLSCAASGFTFDNYAMSWVRQAPGEGLEWVSAVSGSGGSTYYADSVRGRFTISRDNSKNTLYLQMDSLRAEDTAVYYCAKDTGIDFWARTPPYFDLWGRGTLVTVSS
VL: B20 VL with M4L, G28D, A91G, I92Y, Y93I, I96R
notes: papain Fab

target: T1, human SIRPA overexpressed on CHO cells (human, UniProt P78324 31-504); experiment: flow, CHO-huSIRPA;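 further: Anti-SIRPA antibodies applied at 1 µg/mL for 1 h on ice, binding read by flow cytometry using a PE-labelled secondary antibody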
T1 construct: also called CHO-huSIRPA

| relative MFI [fold over background] | Binder |
| --- | --- |
| 4.85 | B1 |
| 7.09 | B2 |
| 1.47 | B3 |
| 98.3 | B4 |
| 0.595 | B5 |
| 0.87 | B6 |

target: T2, Mouse SIRPA D1 Fc (mouse, UniProt P97797 32-150, limits assumed); experiment: ForteBio IgG avid;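 further: antibody IgG captured on AHQ biosensors, then 100 nM Fc-fused SIRP antigen applied for 3 min, followed by 3 min buffer dissociation, kinetics fitted to a 1:1 model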
T2 sequence: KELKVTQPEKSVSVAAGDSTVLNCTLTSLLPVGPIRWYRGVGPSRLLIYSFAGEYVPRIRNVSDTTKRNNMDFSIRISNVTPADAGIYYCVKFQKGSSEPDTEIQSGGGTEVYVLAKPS

| binding result | Binder |
| --- | --- |
| no binding (tested: 100 nM) | B1 |
| no binding (tested: 100 nM) | B2 |
| no binding (tested: 100 nM) | B3 |
| no binding (tested: 100 nM) | B4 |
| no binding (tested: 100 nM) | B5 |
| no binding (tested: 100 nM) | B6 |

target: T3, Human SIRPA D1 Fc (human, UniProt P78324 32-137); experiment: ForteBio IgG avid;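 further: antibody IgG captured on AHQ biosensors, then 100 nM Fc-fused SIRP antigen applied for 3 min, followed by 3 min buffer dissociation, kinetics fitted to a 1:1 model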
T3 construct: not shown: human IgG1 Fc

| Kd [nM] | Binder |
| --- | --- |
| 22.2 | B1 |
| 16.5 | B2 |
| 20 | B3 |
| 2.44 | B4 |
| 21.4 | B5 |
| 30.2 | B6 |

target: Human SIRPb D1 Fc (human, UniProt O00241 30-148, limits assumed); experiment: ForteBio IgG avid;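 further: antibody IgG captured on AHQ biosensors, then 100 nM Fc-fused SIRP antigen applied for 3 min, followed by 3 min buffer dissociation, kinetics fitted to a 1:1 model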
Sequence (O00241 30-148 limits assumed): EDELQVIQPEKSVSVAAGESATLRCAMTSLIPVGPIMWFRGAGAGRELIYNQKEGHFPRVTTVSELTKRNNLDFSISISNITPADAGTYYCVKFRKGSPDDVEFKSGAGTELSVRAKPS

| binding result | Binder |
| --- | --- |
| no binding (tested: 100 nM) | B1 |
| no binding (tested: 100 nM) | B2 |
| no binding (tested: 100 nM) | B3 |
| no binding (tested: 100 nM) | B4 |
| no binding (tested: 100 nM) | B5 |
| no binding (tested: 100 nM) | B6 |

target: T4, mouse SIRPA overexpressed on CHO cells (mouse, UniProt P97797 32-513); experiment: flow, CHO-muSIRPA;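 on relative MFI: antibody binding measured by flow cytometry: cells stained with 1 ug/ml test antibody for 1 h on ice, detected with PE-labelled secondary antibody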
T4 construct: also called CHO-muSIRPA
T4 sequence: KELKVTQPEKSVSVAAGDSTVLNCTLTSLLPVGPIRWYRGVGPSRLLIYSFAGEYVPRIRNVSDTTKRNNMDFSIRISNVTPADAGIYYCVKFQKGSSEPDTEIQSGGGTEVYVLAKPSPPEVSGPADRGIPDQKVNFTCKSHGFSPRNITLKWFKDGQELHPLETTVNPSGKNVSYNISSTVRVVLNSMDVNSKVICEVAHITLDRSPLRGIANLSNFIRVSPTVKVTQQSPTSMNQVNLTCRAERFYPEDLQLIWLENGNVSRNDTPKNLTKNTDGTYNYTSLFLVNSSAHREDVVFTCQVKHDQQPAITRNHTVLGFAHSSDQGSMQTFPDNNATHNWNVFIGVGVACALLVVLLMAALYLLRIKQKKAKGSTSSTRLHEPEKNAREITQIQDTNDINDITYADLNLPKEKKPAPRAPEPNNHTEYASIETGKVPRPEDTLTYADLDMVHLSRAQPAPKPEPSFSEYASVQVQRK

| relative MFI [fold over background] | Binder |
| --- | --- |
| 0.539 | B1 |
| 0.557 | B2 |
| 0.545 | B3 |
| 0.527 | B4 |
| 0.518 | B5 |
| 0.491 | B6 |

target: T4, mouse SIRPA overexpressed on CHO cells; experiment: flow, CHO-muSIRPA; remark: another data set of the same source;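 on relative MFI: antibody binding measured by flow cytometry: cells stained with 1 ug/ml test antibody for 1 h on ice, detected with PE-labelled secondary antibody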

| binding result | Binder |
| --- | --- |
| no binding (tested: 1 ug/ml) | B1 |
| no binding (tested: 1 ug/ml) | B2 |
| no binding (tested: 1 ug/ml) | B3 |
| no binding (tested: 1 ug/ml) | B4 |
| no binding (tested: 1 ug/ml) | B5 |
| no binding (tested: 1 ug/ml) | B6 |

target: T5, biotinylated human SIRPA (monomer) (human, UniProt P78324 31-373, limits assumed, biotinylated); experiment: MSD-SET, Fab, equilibrium;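 further: solution equilibrium titration, free antigen captured on antibody-coated MSD plates and detected by electrochemiluminescence with labeled streptavidin, percent free antigen versus titrated antibody fit to quadratic model for KD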
T5 construct: monomer made by IdeS cleavage of a SIRPA Fc fusion; also called recombinant human SIRPA
Method: Antibodies (20 nM in PBS) were coated onto standard bind MSD-ECL plates overnight at 4° C. or at room temperature for 30 min. Plates were then blocked with 1% BSA for 30 min with shaking at 700 rpm, followed by three washes with wash buffer (PBSF+0.05% Tween 20). SET samples were applied and incubated on the plates for 150s with shaking at 700 rpm followed by one wash. Antigen captured on a plate was detected with 250 ng/ml sulfotag-labeled streptavidin in PBSF by incubation on the plate for 3 min. The plates were washed three times with wash buffer and then read on the MSD Sector Imager 2400 instrument using 1× Read Buffer T with surfactant. The percent free antigen was plotted as a function of titrated antibody in Prism and fit to a quadratic equation to extract the KD. To improve throughput, liquid handling robots were used throughout MSD-SET experiments, including SET sample preparation.

| Kd [nM] | Binder |
| --- | --- |
| 0.18 | B7 |
| 1.2 | B8 |
| 0.084 | B9 |
| 0.14 | B10 |
| 0.22 | B11 |
| 0.27 | B12 |
| 0.42 | B13 |
| 0.88 | B14 |
| 1.1 | B15 |
| 0.42 | B16 |
| 0.37 | B17 |
| 0.31 | B18 |
| 0.64 | B19 |
| 0.18 | B20 |

target: T6, human SIRPA Fc fusion antigen (human, UniProt P78324 31-373); experiment: ForteBio Fab monovalent
T6 construct: heterologous signal peptide; not shown: human IgG1 Fc

| Kd [nM] | Binder |
| --- | --- |
| 1.62 | B7 |
| 3.61 | B8 |
| 1.53 | B9 |
| 0.689 | B10 |
| 2.26 | B11 |
| 1.44 | B12 |
| 23.3 | B21 |
| 1.67 | B13 |
| 4.95 | B14 |
| 3.16 | B15 |
| 1.64 | B16 |
| 1.53 | B17 |
| 1.44 | B18 |
| 2.02 | B19 |
| 1.02 | B20 |

target: T7, human SIRPβ1 Fc fusion antigen (human, UniProt O00241 30-371); experiment: ForteBio Fab monovalent
T7 construct: not shown: human IgG1 Fc
T7 sequence (O00241 30-371 limits assumed): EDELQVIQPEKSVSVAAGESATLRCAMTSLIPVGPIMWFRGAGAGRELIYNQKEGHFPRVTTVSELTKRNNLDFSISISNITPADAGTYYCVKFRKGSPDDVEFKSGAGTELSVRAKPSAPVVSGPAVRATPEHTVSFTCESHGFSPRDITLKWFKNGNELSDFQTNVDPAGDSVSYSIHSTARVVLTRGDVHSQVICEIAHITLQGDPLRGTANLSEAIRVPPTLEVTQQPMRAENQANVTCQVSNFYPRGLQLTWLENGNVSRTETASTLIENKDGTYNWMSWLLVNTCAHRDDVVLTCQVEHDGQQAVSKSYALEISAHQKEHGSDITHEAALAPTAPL

| binding result | Binder |
| --- | --- |
| no binding (tested: 100 nM) | B21 |
| no binding (tested: 100 nM) | B22 |
| no binding (tested: 100 nM) | B23 |
